Experimental data as given in paper PMC7806473.
Several values for one entry are separate records, joined by “and”; a condition that tells them apart may be missing. Equal entries are not always repeated.

Legend:
[1] = target: T1, bovine alpha-lactalbumin (α-LA), calcium-depleted (bovine), P00711; assay: AUC; sedimentation velocity, 50,000 rpm, 20 °C, absorbance at 280 nm, c(s) continuous distribution analysis with SEDFIT; conditions: remark: other sources report otherwise
T1 chain: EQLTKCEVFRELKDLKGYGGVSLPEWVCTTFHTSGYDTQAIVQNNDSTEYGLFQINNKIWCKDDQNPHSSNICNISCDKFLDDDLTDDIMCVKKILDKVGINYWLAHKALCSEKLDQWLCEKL

[2] = target: T1, bovine alpha-lactalbumin (α-LA), …; assay: MALDI-TOF-MS; 1:1 v/v mixture of 0.1% aqueous trifluoroacetic acid MALDI matrix and 50 mM sinapinic acid ionization matrix; conditions: remark: other sources report otherwise

- stoichiometry N [1]: 2 and 3
- stoichiometry N [2]: 2 and 3 and 4
B1: bovine alpha-lactalbumin (α-LA), calcium-depleted, P00711 20-142 (natural protein)
chain: T1 chain
